The text below walks through data of US9574185B2, “Cold-adapted protease derived from Pseudoalteromonas arctica PAMC 21717 and uses thereof” (KOREA INSTITUTE OF OCEAN SCIENCE & TECHNOLOGY, priority 2014, dated 2017).

Data set [1] relates to W-Pro21717. Put plainly: Activity and stability of W-Pro21717 in the presence of metal ions and surfactants. The settings on record: 1 mM, on ice for 1 hour. It counts as biochemical, Pseudoalteromonas arctica PAMC 21717. As to the method: In order to analyze the influence of metal ions and detergents, W-[…] was allowed to react with a standard buffer containing 1 mM BaCl2, CuSO4, MgSO4, CaCl2, ZnSO4, FePO4, KCl, NaCl, […], sodium linear alkylbenzene sulfonate (LAS) or SDS on ice for 1 hour. In addition, the compatibility of W-[…] with a commercial detergent (LG Household & Health Care, Korea; containing subtilisin Carlsberg) was analyzed using skim milk at temperatures of 10° C. or and 30° C.

Data set [2] has as its system W-Pro21717. Put plainly: Reactions of W-Pro21717 with various protease inhibitors. It counts as biochemical, Pseudoalteromonas arctica PAMC 21717. The following applies: for Residual activity (%): residual activity of W-Pro21717, inhibitor 1 mM. As to the method: The reaction solution was centrifuged, and then filtered through a filter having a pore size of 0.45 μm, and the filtrate was mixed and reacted with Folin & Ciocalteu's phenol solution and 500 mM sodium carbonate solution at 37° C. for 30 minutes. Next, the enzymatic activity of the reaction product was measured at 660 nm based on an L-tyrosine standard curve, and an amino acid production of 1 nmole/min/mg at 25° C. was defined as the activity of 1 unit of protease.
The kind of W-Pro21717 was analyzed by reactions with various protease inhibitors.

The nature of data set [3]: Activity of W-Pro21717 as a function of temperature and pH. It counts as biochemical. The settings on record: range 0 to 60° C. tested. Here is the method: A temperature optimal for the activity of W-Pro21717 was analyzed in the temperature range of 0 to 60° C., and the optimum pH was analyzed by 1-hour reactions in 50 mM sodium acetate (pH 2.0-6.0), 50 mM potassium phosphate (pH 7.0-10.0) and 50 mM sodium tetraborate (pH 10.0). As a control, 3 μg of the commercial protease Carlsberg subtilisin was used.

A short description of data set [4]: Stability of W-Pro21717 as a function of temperature and pH. The following applies: after a reaction at 40° C. for 1 hour. It counts as physicochemical.
Data set [5] is described as follows: Substrate specificity of W-Pro21717 with synthetic peptides (p-nitroanilides, 410 nm). The following applies: 25° C., 10 minutes. It counts as biochemical. Here is the method: (§1) The substrate specificity of W-Pro21717 was analyzed using 5 mM of each of the following 7 different synthetic peptides: N-succinyl-Ala-Ala-Val-p-nitroanilide (AAV), N-succinyl-Ala-Ala-Pro-Leu-p-nitroanilide (AAPL), N-succinyl-Ala-Ala-Ala-p-nitroanilide (AAA), N-succinyl-Gly-Gly-Phe-p-nitroanilide (GGF), N-succinyl-Thr-Leu-Val-p-nitroanilide (TLV), N-succinyl-Ala-Ala-Pro-Phe-p-nitroanilide (AAPF), and N-succinyl-Ala-Ala-Val-Ala-p-nitroanilide (AAVA). W-Pro21717 was allowed to react with a standard buffer containing 0.83 mM substrate at 25° C. for 10 minutes, and then the relative activity thereof was measured at 410 nm.

Data set [6] has as its system azocasein. Put plainly: Activity of R-Pro21717 as a function of temperature and pH. It counts as biochemical. Here is the method:
(§2) In order to determine a temperature optimal for the activity of the protease, R-Pro21717 was allowed to react at varying temperatures of 0˜70° C., and then analyzed. The stability of R-Pro21717 against temperature was analyzed by allowing R-Pro21717 at varying temperatures of 0˜70° C. for 1 hour, and then allowing R-Pro21717 to react a 0.65% azocasein-containing standard buffer at 30° C. for 30 minutes. As a control enzyme, Carlsberg subtilisin was used.
(§3) In order to determine a pH optimal for the activity of the protease, R-Pro21717-containing buffers having varying pHs were allowed to react at 30° C., and then analyzed. The stability of R-Pro21717 against pH was analyzed by allowing R-Pro21717-containing buffers having varying pHs to react on ice for 1 hour, and then reacting R-Pro21717 in 0.65% azocasein-containing standard buffer at 30° C. for 30 minutes. Carlsberg subtilisin was used as a control enzyme and analyzed at a reaction temperature of 40° C.

Data set [7] relates to azocasein. Put plainly: Stability of R-Pro21717 against temperature and pH. It counts as physicochemical. The settings on record: 1 hour at varying temperatures, then azocasein 30° C. 30 minutes. Here is the method:
as §2, §3

Data set [8] can be described thus: Substrate specificity of R-Pro21717, synthetic peptide (oligo molecule) substrates. It counts as biochemical. As to the method: as §1
In this Example, the activity of the R-Pro21717 protease in the presence of synthetic peptide substrates was analyzed.

Data set [9] relates to complex substrates including collagen and keratin. Put plainly: Substrate specificity of R-Pro21717, macro molecule substrates. It counts as biochemical.

Where only a bound is given, the exact number is not on record here.

For `[Ba+2].[Cl-].[Cl-]` [Ba^2+, BaCl2], in the data set on W-Pro21717 [1], the “influence on the activity of W-Pro21717” value is given as “did not influence”.
In the case of `[Ca+2].[Cl-].[Cl-]` [Ca^2+, CaCl2], in the data set with W-Pro21717 [1], the “influence on the activity of W-Pro21717” value is “did not influence”.
For `O=S(=O)([O-])[O-].[Cu+2]` [CuSO4], the “increase of the activity of W-Pro21717” value in the data set on W-Pro21717 [1] is given as “about 60%”.
In the case of `O=C(O)CN(CCN(CC(=O)O)CC(=O)O)CC(=O)O` [EDTA], in the data set on W-Pro21717 [2], the “effect of inhibitor on the activity of W-Pro21717” value (“effect of inhibitor” below) is reported as “slightly inhibited” and the “Residual activity (%)” value stood at 75 ± 9%.
Take `O=P([O-])([O-])[O-].[Fe+3]` [Fe^2+, FePO4]: the “influence on the activity of W-Pro21717” value in the data set with W-Pro21717 [1] is “did not influence”.
For `[Cl][Hg][Cl]` [HgCl2], in the data set with W-Pro21717 [2], the “effect of inhibitor” value was “inhibited” and the “Residual activity (%)” value was found to be 23 ± 8%.
Regarding `NC(=O)CI` [Iodoacetamide], the “Residual activity (%)” value in the data set on W-Pro21717 [2] amounted to 94 ± 3%.
As for `[Cl-].[K+]` [K^+, KCl], in the data set on W-Pro21717 [1], the “influence on the activity of W-Pro21717” value is listed as “did not influence”.
On to `CC(=O)N[C@@H](CC(C)C)C(=O)N[C@@H](CC(C)C)C(=O)N[C@H](C=O)CCCNC(=N)N` [Leupeptin], for which the “Residual activity (%)” value with W-Pro21717 [2] is listed as 98 ± 2%.
For the molecule `O=S(=O)([O-])[O-].[Mg+2]` [Me, MgSO4], in the data set on W-Pro21717 [1], the “influence on the activity of W-Pro21717” value is recorded as “did not influence”.
Turning to `CCN1C(=O)C=CC1=O` [N-Ethylmaleimide], the “Residual activity (%)” value in the data set with W-Pro21717 [2] amounted to 107 ± 8%.
Same read-out and setting: the result for `Cc1ccc(S(=O)(=O)N[C@@H](CCCCN)C(=O)CCl)cc1` [N^a-p-tosyp-L-lysine chloromethyl ketone] reads 137 ± 13%.
For the molecule `O=S(=O)([O-])[O-].[Na+].[Na+]` [Na2SO4], the “stability of W-Pro21717 in the presence of standard detergent components” value in the data set on W-Pro21717 [1] is “sufficient stability”.
Regarding `[Cl-].[Na+]` [Na^2+, NaCl], the “influence on the activity of W-Pro21717” value with W-Pro21717 [1] is “did not influence”.
Regarding `O=S(=O)(F)Cc1ccccc1` [PMSF], in the data set on W-Pro21717 [2], the “effect of inhibitor” value is “inhibited” and the “Residual activity (%)” value is 40 ± 8%.
Consider `O=S(=O)([O-])[O-].[Zn+2]` [Zn^2+, ZnSO4], for which the “influence on the activity of W-Pro21717” value in the data set on W-Pro21717 [1] is given as “did not influence”.
For APMA, the “Residual activity (%)” value in the data set on W-Pro21717 [2] is on record as 131 ± 2%.
Take “sodium linear alkylbenzene sulfonate [LAS]”: the “stability of W-Pro21717 in the presence of standard detergent components” value in the data set on W-Pro21717 [1] is listed as “sufficient stability”.

B1: Subtilisin Carlsberg: commercial protease used as control enzyme (protein, UniProt P00780 106-379, looked up)
Subtilisin Carlsberg: AQTVPYGIPLIKADKVQAQGFKGANVKVAVLDTGIQASHPDLNVVGGASFVAGEAYNTDGNGHGTHVAGTVAALDNTTGVLGVAPSVSLYAVKVLNSSGSGSYSGIVSGIEWATTNGMDVINMSLGGASGSTAMKQAVDNAYAKGVVVVAAAGNSGSSGNTNTIGYPAKYDSVIAVGAVDSNSNRASFSSVGAELEVMAPGAGVYSTYPTNTYATLNGTSMASPHVAGAAALILSKHPNLSASQVRNRLSSTATYLGSSFYYGKGLINVEAAAQ
B1: the “temperature optimal for the activity” value (in data set [3]; in the data set with azocasein [6] (0˜70° C. tested)) was 60 °C in each case. Besides, in data set [4], the decrease in activity was 80%. The “Relative activity (%)” value was 1.5 ± 0.5% in [5] (substrate AAA); 100% in data set [5] (substrate AAPF); 66.5 ± 0.1% in data set [5] (substrate AAPL); 68.3% in [5] (substrate AAPL, listed as subtilisin Carlsberg); 2.6 ± 1.3% in [5] (substrate AAV); 11.7 ± 2.3% in [5] (substrate AAVA). For the same molecule, the “Relative activity (%)” value in data set [5] (substrate GGF) stood at 0%; in [5] (substrate TLV) it was 4.0 ± 3.7%; in [8] (substrate AAA), 10.2 ± 1.9%; in data set [8] (substrate AAPF), 100%; in data set [8] (substrate AAPL), 57.1 ± 10.1%; in data set [8] (substrate AAV), 7.9 ± 3.9%. The “Relative activity (%)” value in data set [8] (substrate AAVA) was found to be 12.9 ± 0.6%; in [8] (substrate GGF), 16.2 ± 2.1%; in data set [8] (substrate TLV), 11.9 ± 1.1%; in [9] (substrate Azocasein), 100%; in data set [9] (substrate Collagen), 6.7 ± 1.2%; in data set [9] (substrate Keratin), 30.2 ± 5.6%. The “Relative activity (%)” value in data set [9] (substrate Skim milk) was found to be 67.7 ± 5.7%. The “proteolytic activity at low temperature compared to 60° C.” value with azocasein [6] (printed 'at or') is reported as “did not show proteolytic activity”. Further, the “pH optimum and pH stability compared with R-Pro21717” value in the data set on azocasein [6] (reaction temperature 40° C.) is recorded as “the same results as those of R-Pro21717”. The “temperature at which stability / enzymatic activity decreases” value with azocasein [7] was at least 50 °C.
